Laboratory results taken from US20230357348A1 (AstraZeneca / MedImmune, published 2023).
Starred links: 1 amine or outer side, 2 acyl side, 3 side chain; linkers in the order of their positions; H or OH if unused. Non-standard residues stand in square brackets, D forms with d. Groups on a side chain read outwards from the residue. No end group written: not given here. *: point of attachment. C18 diacid = O=C(O)CCCCCCCCCCCCCCCCC(=O)*; γGlu = O=C(O)[C@H](CCC(=O)[*:2])N[*:1]; αMeF = C[C@](N)(Cc1ccccc1)C(=O)O; AEEA = NCCOCCOCC(=O)O; Aib = CC(C)(N)C(=O)O

B1: Peptide 35 (peptide)
peptide: H[Aib]QGTFTSDVSK[αMeF]LDTK([AEEA-AEEA-γGlu-C18 diacid])RAQDFVQWLL[Aib]T-OH
modifications: N-terminus assumed
SMILES: CC(C)C[C@H](NC(=O)[C@H](Cc1c[nH]c2ccccc12)NC(=O)[C@H](CCC(N)=O)NC(=O)[C@@H](NC(=O)[C@H](Cc1ccccc1)NC(=O)[C@H](CC(=O)O)NC(=O)[C@H](CCC(N)=O)NC(=O)[C@H](C)NC(=O)[C@H](CCCNC(=N)N)NC(=O)[C@H](CCCCNC(=O)COCCOCCNC(=O)COCCOCCNC(=O)CC[C@H](NC(=O)CCCCCCCCCCCCCCCCC(=O)O)C(=O)O)NC(=O)[C@@H](NC(=O)[C@H](CC(=O)O)NC(=O)[C@H](CC(C)C)NC(=O)[C@](C)(Cc1ccccc1)NC(=O)[C@H](CCCCN)NC(=O)[C@H](CO)NC(=O)[C@@H](NC(=O)[C@H](CC(=O)O)NC(=O)[C@H](CO)NC(=O)[C@@H](NC(=O)[C@H](Cc1ccccc1)NC(=O)[C@@H](NC(=O)CNC(=O)[C@H](CCC(N)=O)NC(=O)C(C)(C)NC(=O)[C@@H](N)Cc1c[nH]cn1)[C@@H](C)O)[C@@H](C)O)C(C)C)[C@@H](C)O)C(C)C)C(=O)N[C@@H](CC(C)C)C(=O)NC(C)(C)C(=O)N[C@H](C(=O)O)[C@@H](C)O
B2: Peptide 33 (peptide)
peptide: H[Aib]QGTFTSDVSK[αMeF]LDSK([AEEA-AEEA-γGlu-C18 diacid])RAQDFVQWLE[Aib]T-OH
modifications: N-terminus assumed
SMILES: CC(C)C[C@H](NC(=O)[C@H](Cc1c[nH]c2ccccc12)NC(=O)[C@H](CCC(N)=O)NC(=O)[C@@H](NC(=O)[C@H](Cc1ccccc1)NC(=O)[C@H](CC(=O)O)NC(=O)[C@H](CCC(N)=O)NC(=O)[C@H](C)NC(=O)[C@H](CCCNC(=N)N)NC(=O)[C@H](CCCCNC(=O)COCCOCCNC(=O)COCCOCCNC(=O)CC[C@H](NC(=O)CCCCCCCCCCCCCCCCC(=O)O)C(=O)O)NC(=O)[C@H](CO)NC(=O)[C@H](CC(=O)O)NC(=O)[C@H](CC(C)C)NC(=O)[C@](C)(Cc1ccccc1)NC(=O)[C@H](CCCCN)NC(=O)[C@H](CO)NC(=O)[C@@H](NC(=O)[C@H](CC(=O)O)NC(=O)[C@H](CO)NC(=O)[C@@H](NC(=O)[C@H](Cc1ccccc1)NC(=O)[C@@H](NC(=O)CNC(=O)[C@H](CCC(N)=O)NC(=O)C(C)(C)NC(=O)[C@@H](N)Cc1c[nH]cn1)[C@@H](C)O)[C@@H](C)O)C(C)C)C(C)C)C(=O)N[C@@H](CCC(=O)O)C(=O)NC(C)(C)C(=O)N[C@H](C(=O)O)[C@@H](C)O
B3: Peptide 36 (peptide)
peptide: H[Aib]QGTFTSDVSK[αMeF]LDSK([AEEA-AEEA-γGlu-C18 diacid])RARDFVQWLL[Aib]T-OH
modifications: N-terminus assumed
SMILES: CC(C)C[C@H](NC(=O)[C@H](Cc1c[nH]c2ccccc12)NC(=O)[C@H](CCC(N)=O)NC(=O)[C@@H](NC(=O)[C@H](Cc1ccccc1)NC(=O)[C@H](CC(=O)O)NC(=O)[C@H](CCCNC(=N)N)NC(=O)[C@H](C)NC(=O)[C@H](CCCNC(=N)N)NC(=O)[C@H](CCCCNC(=O)COCCOCCNC(=O)COCCOCCNC(=O)CC[C@H](NC(=O)CCCCCCCCCCCCCCCCC(=O)O)C(=O)O)NC(=O)[C@H](CO)NC(=O)[C@H](CC(=O)O)NC(=O)[C@H](CC(C)C)NC(=O)[C@](C)(Cc1ccccc1)NC(=O)[C@H](CCCCN)NC(=O)[C@H](CO)NC(=O)[C@@H](NC(=O)[C@H](CC(=O)O)NC(=O)[C@H](CO)NC(=O)[C@@H](NC(=O)[C@H](Cc1ccccc1)NC(=O)[C@@H](NC(=O)CNC(=O)[C@H](CCC(N)=O)NC(=O)C(C)(C)NC(=O)[C@@H](N)Cc1c[nH]cn1)[C@@H](C)O)[C@@H](C)O)C(C)C)C(C)C)C(=O)N[C@@H](CC(C)C)C(=O)NC(C)(C)C(=O)N[C@H](C(=O)O)[C@@H](C)O
B4: Peptide 34 (peptide)
peptide: H[Aib]QGTFTSDVSK[αMeF]LDSK([AEEA-AEEA-γGlu-C18 diacid])RAQDFVQWLL[Aib]E-OH
modifications: N-terminus assumed
SMILES: CC(C)C[C@H](NC(=O)[C@H](Cc1c[nH]c2ccccc12)NC(=O)[C@H](CCC(N)=O)NC(=O)[C@@H](NC(=O)[C@H](Cc1ccccc1)NC(=O)[C@H](CC(=O)O)NC(=O)[C@H](CCC(N)=O)NC(=O)[C@H](C)NC(=O)[C@H](CCCNC(=N)N)NC(=O)[C@H](CCCCNC(=O)COCCOCCNC(=O)COCCOCCNC(=O)CC[C@H](NC(=O)CCCCCCCCCCCCCCCCC(=O)O)C(=O)O)NC(=O)[C@H](CO)NC(=O)[C@H](CC(=O)O)NC(=O)[C@H](CC(C)C)NC(=O)[C@](C)(Cc1ccccc1)NC(=O)[C@H](CCCCN)NC(=O)[C@H](CO)NC(=O)[C@@H](NC(=O)[C@H](CC(=O)O)NC(=O)[C@H](CO)NC(=O)[C@@H](NC(=O)[C@H](Cc1ccccc1)NC(=O)[C@@H](NC(=O)CNC(=O)[C@H](CCC(N)=O)NC(=O)C(C)(C)NC(=O)[C@@H](N)Cc1c[nH]cn1)[C@@H](C)O)[C@@H](C)O)C(C)C)C(C)C)C(=O)N[C@@H](CC(C)C)C(=O)NC(C)(C)C(=O)N[C@@H](CCC(=O)O)C(=O)O
B5: Peptide 518 (peptide)
peptide: H[Aib]QGTFTSDVSK[αMeF]LDTK([AEEA-AEEA-γGlu-γGlu-C18 diacid])RARDFVQWLLE[Aib]G-OH
modifications: N-terminus assumed
SMILES: CC(C)C[C@H](NC(=O)[C@H](Cc1c[nH]c2ccccc12)NC(=O)[C@H](CCC(N)=O)NC(=O)[C@@H](NC(=O)[C@H](Cc1ccccc1)NC(=O)[C@H](CC(=O)O)NC(=O)[C@H](CCCNC(=N)N)NC(=O)[C@H](C)NC(=O)[C@H](CCCNC(=N)N)NC(=O)[C@H](CCCCNC(=O)COCCOCCNC(=O)COCCOCCNC(=O)CC[C@H](NC(=O)CC[C@H](NC(=O)CCCCCCCCCCCCCCCCC(=O)O)C(=O)O)C(=O)O)NC(=O)[C@@H](NC(=O)[C@H](CC(=O)O)NC(=O)[C@H](CC(C)C)NC(=O)[C@](C)(Cc1ccccc1)NC(=O)[C@H](CCCCN)NC(=O)[C@H](CO)NC(=O)[C@@H](NC(=O)[C@H](CC(=O)O)NC(=O)[C@H](CO)NC(=O)[C@@H](NC(=O)[C@H](Cc1ccccc1)NC(=O)[C@@H](NC(=O)CNC(=O)[C@H](CCC(N)=O)NC(=O)C(C)(C)NC(=O)[C@@H](N)Cc1c[nH]cn1)[C@@H](C)O)[C@@H](C)O)C(C)C)[C@@H](C)O)C(C)C)C(=O)N[C@@H](CC(C)C)C(=O)N[C@@H](CCC(=O)O)C(=O)NC(C)(C)C(=O)NCC(=O)O
B6: Peptide 519 (peptide)
peptide: H[Aib]QGTFTSDVSK[αMeF]LDTK([γGlu-γGlu-AEEA-AEEA-γGlu-γGlu-C18 diacid])RARDFVQWLLE[Aib]G-OH
modifications: N-terminus assumed
SMILES: CC(C)C[C@H](NC(=O)[C@H](Cc1c[nH]c2ccccc12)NC(=O)[C@H](CCC(N)=O)NC(=O)[C@@H](NC(=O)[C@H](Cc1ccccc1)NC(=O)[C@H](CC(=O)O)NC(=O)[C@H](CCCNC(=N)N)NC(=O)[C@H](C)NC(=O)[C@H](CCCNC(=N)N)NC(=O)[C@H](CCCCNC(=O)CC[C@H](NC(=O)CC[C@H](NC(=O)COCCOCCNC(=O)COCCOCCNC(=O)CC[C@H](NC(=O)CC[C@H](NC(=O)CCCCCCCCCCCCCCCCC(=O)O)C(=O)O)C(=O)O)C(=O)O)C(=O)O)NC(=O)[C@@H](NC(=O)[C@H](CC(=O)O)NC(=O)[C@H](CC(C)C)NC(=O)[C@](C)(Cc1ccccc1)NC(=O)[C@H](CCCCN)NC(=O)[C@H](CO)NC(=O)[C@@H](NC(=O)[C@H](CC(=O)O)NC(=O)[C@H](CO)NC(=O)[C@@H](NC(=O)[C@H](Cc1ccccc1)NC(=O)[C@@H](NC(=O)CNC(=O)[C@H](CCC(N)=O)NC(=O)C(C)(C)NC(=O)[C@@H](N)Cc1c[nH]cn1)[C@@H](C)O)[C@@H](C)O)C(C)C)[C@@H](C)O)C(C)C)C(=O)N[C@@H](CC(C)C)C(=O)N[C@@H](CCC(=O)O)C(=O)NC(C)(C)C(=O)NCC(=O)O
B7: Peptide 520 (peptide)
peptide: H[Aib]QGTFTSDVSK[αMeF]LDTKRARDFVQWLLE[Aib]G-OH
modifications: not fully specified (residue 17)
B8: Peptide 166 (peptide)
peptide: H[Aib]QGTFTSDVSK[αMeF]LDSK([AEEA-AEEA-γGlu-C18 diacid])RARDFVRWLL[Aib]TE-OH
modifications: N-terminus assumed
SMILES: CC(C)C[C@H](NC(=O)[C@H](Cc1c[nH]c2ccccc12)NC(=O)[C@H](CCCNC(=N)N)NC(=O)[C@@H](NC(=O)[C@H](Cc1ccccc1)NC(=O)[C@H](CC(=O)O)NC(=O)[C@H](CCCNC(=N)N)NC(=O)[C@H](C)NC(=O)[C@H](CCCNC(=N)N)NC(=O)[C@H](CCCCNC(=O)COCCOCCNC(=O)COCCOCCNC(=O)CC[C@H](NC(=O)CCCCCCCCCCCCCCCCC(=O)O)C(=O)O)NC(=O)[C@H](CO)NC(=O)[C@H](CC(=O)O)NC(=O)[C@H](CC(C)C)NC(=O)[C@](C)(Cc1ccccc1)NC(=O)[C@H](CCCCN)NC(=O)[C@H](CO)NC(=O)[C@@H](NC(=O)[C@H](CC(=O)O)NC(=O)[C@H](CO)NC(=O)[C@@H](NC(=O)[C@H](Cc1ccccc1)NC(=O)[C@@H](NC(=O)CNC(=O)[C@H](CCC(N)=O)NC(=O)C(C)(C)NC(=O)[C@@H](N)Cc1c[nH]cn1)[C@@H](C)O)[C@@H](C)O)C(C)C)C(C)C)C(=O)N[C@@H](CC(C)C)C(=O)NC(C)(C)C(=O)N[C@H](C(=O)N[C@@H](CCC(=O)O)C(=O)O)[C@@H](C)O

Experiments:
[1] = biological target: human GLP-1 receptor (hGLP-1R) (human, UniProt P43220 24-463); test: cell-based or functional assay
[2] = biological target: human glucagon receptor (hGCGR) (human, UniProt P47871 26-477); test: cell-based or functional assay
Chain of human glucagon receptor (hGCGR) (P47871 26-477): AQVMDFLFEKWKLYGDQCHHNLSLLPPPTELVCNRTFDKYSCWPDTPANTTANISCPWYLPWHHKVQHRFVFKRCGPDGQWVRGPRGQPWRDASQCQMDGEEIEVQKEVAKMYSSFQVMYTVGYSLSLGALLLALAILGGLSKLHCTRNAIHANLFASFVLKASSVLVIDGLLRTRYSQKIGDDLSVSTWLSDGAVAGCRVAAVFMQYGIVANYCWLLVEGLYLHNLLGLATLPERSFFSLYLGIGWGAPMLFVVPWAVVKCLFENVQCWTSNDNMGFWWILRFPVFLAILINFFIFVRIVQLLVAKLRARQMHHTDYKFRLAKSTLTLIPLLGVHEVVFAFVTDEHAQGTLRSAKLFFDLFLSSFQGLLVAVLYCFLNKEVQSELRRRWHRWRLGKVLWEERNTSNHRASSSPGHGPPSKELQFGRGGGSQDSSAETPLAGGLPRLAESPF

Row | Binder | hGLP-1R EC50 (pM) [1] [pM] | hGluc-R EC50 (pM) [2] [pM]
1 | B1 | 83.7 | 335
2 | B2 | 213 | 548
3 | B3 | 43.1 | 278
4 | B4 | 82.4 | 161
5 | B5 | 31 | 77.3
6 | B6 | 172 | 386
7 | B7 | 543 | 1620
8 | B8 | 48 | 270
